{
  "source": "paper PMC9975944",
  "about": "(The EMBO Journal, 2023)",
  "target": "T1, GFP-SOX7 (UniProt Q9BT81 1-388)",
  "T1 sequence": "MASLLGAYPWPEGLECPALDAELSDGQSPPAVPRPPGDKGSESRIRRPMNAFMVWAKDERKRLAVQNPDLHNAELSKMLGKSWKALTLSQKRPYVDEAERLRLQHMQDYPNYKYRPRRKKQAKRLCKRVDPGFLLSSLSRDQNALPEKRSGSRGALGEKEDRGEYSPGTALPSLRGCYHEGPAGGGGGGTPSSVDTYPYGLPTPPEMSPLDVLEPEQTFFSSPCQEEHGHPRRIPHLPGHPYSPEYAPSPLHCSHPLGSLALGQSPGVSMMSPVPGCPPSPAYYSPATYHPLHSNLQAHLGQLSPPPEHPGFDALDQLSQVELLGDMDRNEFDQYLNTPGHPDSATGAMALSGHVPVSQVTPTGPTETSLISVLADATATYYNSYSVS",
  "assay": "single-molecule two-colour coincidence spectroscopy",
  "data": [
    {"binder": "HEY1-Cherry (natural protein) MKRAHPEYSSSDSELDETIEVEKESADENGNLSSALGSMSPTTSSQILARKRRRGIIEKRRRDRINNSLSELRRLVPSAFEKQGSAKLEKAEILQMTVDHLKMLHTAGGKGYFDAHALAMDYRSLGFRECLAEVARYLSIIEGLDASDPLRVRLVSHLNNYASQREAASGAHAGLGHIPWGTVFGHHPHIAHPLLLPQNGHGNAGTTASPTEPHHQGRLGSAHPEAPALRAPPSGSLGPVLPVVTSASKLSPPLLSSVASLSAFPFSFGSFHLLSPNALSPSAPTQAANLGKPYRPWGTEIGAF", "values": [
      {"measurement": "coincidence ratio", "result": 0.66}
    ]}
  ]
}
